Our source for the binding result and fold change in affinity against ARAP3 (1414-1429) values is article PMC8244488 (Current Research in Structural Biology, 2021).

The target in assay [1] is T1, human Shank1 PDZ (652-765), GST tag removed (human, UniProt Q9Y566 652-765).
T1 sequence: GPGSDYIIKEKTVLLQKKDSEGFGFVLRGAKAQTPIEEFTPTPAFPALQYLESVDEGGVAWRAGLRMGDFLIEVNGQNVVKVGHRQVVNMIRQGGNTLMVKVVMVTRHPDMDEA
In words: fluorescence polarisation. On the technique in general: Polarisation of emitted light reports the rotation of a fluorescent probe.

For assay [2], the target named is C-terminally truncated ARAP3 peptide (human). In words: fluorescence polarisation.

No end group written: not given here.

For the molecule FPELIQDTSTSFSTTR (also: FITC label, position not given here) [ARAP3_(1414-1429) peptide], the binding result in assay [1] is “binds”.

B1: human Shank1 PDZ (652-765), GST tag removed (domain or fragment)
chain: T1 sequence
In assay [2], B1 returned a fold change in affinity against ARAP3 (1414-1429) of 2.5 fold.
